The values that follow come from article PMC3776778, “A Fully Human Inhibitory Monoclonal Antibody to the Wnt Receptor RYK” (PLoS ONE, 2013).

The target in the experiment is T1, recombinant mouse Wnt3a protein (mouse, UniProt P27467 19-352).
T1 construct: recombinant mouse Wnt3a (R&D Systems); the bought protein is probably the mature secreted form (surmise); also called recombinant Wnt3a protein; source: bought: R&D Systems
In words: ELISA; competitive ELISA, third round of a screen of a human scFv phage display library: phage clones against recombinant mouse Wnt3a for binding to purified hRYKWD.Fc. The conditions noted are these: both partners purified. On the technique in general: ELISA stands for enzyme-linked immunosorbent assay.

T1 sequence (P27467 19-352): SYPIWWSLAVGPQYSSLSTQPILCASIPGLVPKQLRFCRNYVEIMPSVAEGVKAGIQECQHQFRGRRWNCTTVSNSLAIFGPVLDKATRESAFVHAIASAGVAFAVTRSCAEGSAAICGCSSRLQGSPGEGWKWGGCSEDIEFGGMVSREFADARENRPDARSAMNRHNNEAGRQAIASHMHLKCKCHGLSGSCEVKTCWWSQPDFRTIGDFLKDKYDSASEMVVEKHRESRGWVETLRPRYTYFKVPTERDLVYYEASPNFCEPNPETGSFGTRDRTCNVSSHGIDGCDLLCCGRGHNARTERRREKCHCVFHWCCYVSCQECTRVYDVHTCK

B1: hRYKWD.Fc (WIF domain of human RYK fused to the Fc.FLAG region of human IgG1) (Fc fusion, UniProt P34925 66-194, looked up)
chain: LYLSEDEVRRLIGLDAELYYVRNDLISHYALSFSLLVPSETNFLHFTWHAKSKVEYKLGFQVDNVLAMDMPQVNISVQGEVPRTLSVFRVELSCTGKVDSEVMILMQLNLTVNSSKNFTVLNFKRRKMC
notes: WIF domain of human RYK, lacking the metalloprotease cleavage site; also called hRYKWD.Fc.FLAG; human RYK WIF domain-only fusion protein
As to B1, the binding result is “binds”.
